Values of other authors in paper PMC11426987.
Like-named read-outs stand apart in the source and are kept apart here.

Key:
protein S (Homo sapiens) [1] = molecular target: protein S (Homo sapiens) (UniProt P07225)
protein S (Homo sapiens) [2] = molecular target: protein S (Homo sapiens) (UniProt P07225); remark: listed apart in the source

Chain of UniProt P07225 (P07225 42-676): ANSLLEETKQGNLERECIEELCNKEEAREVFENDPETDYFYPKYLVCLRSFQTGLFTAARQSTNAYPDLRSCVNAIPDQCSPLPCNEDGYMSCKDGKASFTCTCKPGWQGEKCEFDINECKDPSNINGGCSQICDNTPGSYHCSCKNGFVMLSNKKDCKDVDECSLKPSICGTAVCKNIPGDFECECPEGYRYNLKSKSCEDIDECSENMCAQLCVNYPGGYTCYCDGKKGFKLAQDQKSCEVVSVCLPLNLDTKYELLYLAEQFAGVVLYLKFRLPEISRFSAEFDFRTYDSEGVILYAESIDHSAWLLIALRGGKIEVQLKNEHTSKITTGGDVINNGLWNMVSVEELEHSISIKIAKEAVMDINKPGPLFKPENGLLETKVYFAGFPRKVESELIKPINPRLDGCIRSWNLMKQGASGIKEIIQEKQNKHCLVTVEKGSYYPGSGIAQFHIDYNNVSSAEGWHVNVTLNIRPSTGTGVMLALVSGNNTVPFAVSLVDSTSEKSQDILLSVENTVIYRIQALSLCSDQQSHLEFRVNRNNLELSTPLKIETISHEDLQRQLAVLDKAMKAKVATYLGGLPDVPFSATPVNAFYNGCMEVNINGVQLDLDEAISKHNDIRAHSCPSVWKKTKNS

Which Kd (protein S (Homo sapiens) [1]) does the source give for TFPIα (from UniProt P10646) here?
The Kd was 20 nM.

For TFPI (from UniProt P10646), which Kd (protein S (Homo sapiens) [2]) is on record?
The Kd was over 1000 nM.
